Source: patent publication US20180311371A1 (Hoffmann-La Roche, published 2018)

Tests used:
[1] = biological target: T1, human TPBG (trophoblast glycoprotein), full length, cell surface expressed (human, UniProt Q13641 32-420); assay: cell ELISA on MCF7 cells; titrated from 5 µg/ml
T1 construct: On MCF7, H1975 and BxPC-3 tumour cells, on SW620 clone 4 and on CHO-K1 cells transfected with full length human TPBG; also called huTPBG; 5T4
T1 sequence: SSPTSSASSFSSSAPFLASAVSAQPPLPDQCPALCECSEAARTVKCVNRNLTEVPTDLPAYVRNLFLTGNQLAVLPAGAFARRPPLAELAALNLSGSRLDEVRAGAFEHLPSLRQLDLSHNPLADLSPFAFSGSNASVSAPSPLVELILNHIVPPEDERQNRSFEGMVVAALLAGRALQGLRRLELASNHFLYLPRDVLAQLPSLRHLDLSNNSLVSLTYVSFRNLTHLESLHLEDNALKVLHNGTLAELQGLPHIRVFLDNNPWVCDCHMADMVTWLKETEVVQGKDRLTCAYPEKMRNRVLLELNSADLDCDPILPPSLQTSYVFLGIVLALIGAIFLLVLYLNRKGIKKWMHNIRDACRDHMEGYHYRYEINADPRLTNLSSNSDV

[2] = biological target: T2, minipig TPBG, full length, cell surface expressed on CHO-K1 cells (minipig); assay: cell-based or functional assay
T2 chain: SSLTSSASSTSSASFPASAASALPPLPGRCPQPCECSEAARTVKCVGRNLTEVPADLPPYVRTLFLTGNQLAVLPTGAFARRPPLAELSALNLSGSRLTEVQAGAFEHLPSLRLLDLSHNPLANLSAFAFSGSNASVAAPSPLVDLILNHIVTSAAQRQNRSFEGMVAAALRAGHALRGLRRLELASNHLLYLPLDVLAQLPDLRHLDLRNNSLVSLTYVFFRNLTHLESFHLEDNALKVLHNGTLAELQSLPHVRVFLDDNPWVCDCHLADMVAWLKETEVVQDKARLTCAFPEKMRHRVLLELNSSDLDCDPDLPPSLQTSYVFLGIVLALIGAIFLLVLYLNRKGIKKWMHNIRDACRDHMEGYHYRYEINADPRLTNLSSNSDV

[3] = biological target: T1, human TPBG (trophoblast glycoprotein), …; assay: cell-based or functional assay
[4] = biological target: T3, recombinant extracellular domain of minipig TPBG (Biacore analyte) (minipig); assay: SPR Biacore T200; Fab captured by anti-huFab, minipig TPBG injected
T3 chain: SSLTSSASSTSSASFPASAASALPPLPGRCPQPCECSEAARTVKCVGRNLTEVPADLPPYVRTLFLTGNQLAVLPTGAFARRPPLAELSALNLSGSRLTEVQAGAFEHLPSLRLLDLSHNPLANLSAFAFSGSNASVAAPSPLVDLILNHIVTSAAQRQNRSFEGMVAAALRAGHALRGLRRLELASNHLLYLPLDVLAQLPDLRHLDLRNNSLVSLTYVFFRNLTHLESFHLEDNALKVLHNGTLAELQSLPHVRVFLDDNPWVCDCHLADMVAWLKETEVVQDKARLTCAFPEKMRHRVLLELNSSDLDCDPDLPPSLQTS

[5] = biological target: T1, human TPBG (trophoblast glycoprotein), …; assay: cell-based or functional assay; remark: listed apart in the source
[6] = biological target: T1, human TPBG (trophoblast glycoprotein), …; assay: flow cytometry on SW620 clone 4 cells; ratio of MFI; replicate 1
[7] = biological target: T4, cynomolgus TPBG extracellular domain, His6Avi, biotinylated (cynomolgus, biotinylated); assay: ELISA; biotinylated TPBG-AviHis on streptavidin plate; Fab titrated from 2 µg/ml
T4 construct: also called cyTPBG; cyno TPBG-AviHis
T4 chain: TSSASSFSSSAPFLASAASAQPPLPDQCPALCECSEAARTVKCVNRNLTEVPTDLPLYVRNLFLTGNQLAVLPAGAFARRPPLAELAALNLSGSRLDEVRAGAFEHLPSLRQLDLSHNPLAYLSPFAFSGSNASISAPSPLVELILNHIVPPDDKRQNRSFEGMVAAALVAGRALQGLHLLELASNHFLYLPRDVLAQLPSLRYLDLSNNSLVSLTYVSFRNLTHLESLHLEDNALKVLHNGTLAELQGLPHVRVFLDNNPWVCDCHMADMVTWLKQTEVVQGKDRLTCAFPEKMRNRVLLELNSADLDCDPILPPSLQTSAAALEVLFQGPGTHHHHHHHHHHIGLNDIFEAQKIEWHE

[8] = biological target: T5, minipig TPBG extracellular domain, His6Avi, biotinylated (minipig, biotinylated); assay: as above
T5 construct: also called mpTPBG; minipig TPBG-AviHis
T5 chain: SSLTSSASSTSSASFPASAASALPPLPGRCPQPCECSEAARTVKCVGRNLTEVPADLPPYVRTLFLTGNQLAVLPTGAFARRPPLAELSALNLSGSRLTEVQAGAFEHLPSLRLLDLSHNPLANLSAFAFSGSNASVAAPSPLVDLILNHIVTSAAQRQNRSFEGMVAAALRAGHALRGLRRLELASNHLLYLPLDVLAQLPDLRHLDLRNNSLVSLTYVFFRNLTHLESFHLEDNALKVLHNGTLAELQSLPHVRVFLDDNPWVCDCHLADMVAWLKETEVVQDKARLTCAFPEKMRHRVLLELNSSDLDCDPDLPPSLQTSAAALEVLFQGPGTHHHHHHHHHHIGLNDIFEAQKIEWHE

B1: anti-TPBG antibody 091, Fab fragment (Fab, V domains shown)
VH: EVHLLESGGGLVHPGGSLRLSCAASGFTFRSDAMHWVRQAPGKGLEWVSGVSGSGGSPYYADSVKGRFTISRDDSKTTLYLQMNSLRAEDTAVYYCATGGSIAGSYYYYPMDVWGQGTTVTVSS
VL: DIQMTQSPSSLSASVGDRVTITCQASQDISNYLNWYQQKPGKAPKLLIYAASTLQIGVPSRFSGSGSGTDFTFTISSLQPEDFATYYCQQANSFPLTFGGGTKVEIK
notes: also called Fab2
EC50 [1]: 0.014 µg/mL
EC50 cytotoxicity, Fab + anti-kappa-Fab-PE, CHO-K1/minipig TPBG, replicate 1 [2]: 1.05 nM
EC50 cytotoxicity, Fab + anti-kappa-Fab-PE, CHO-K1/minipig TPBG, replicate 2 [2]: 1.2 nM
EC50 cytotoxicity, Fab + anti-kappa-Fab-PE, CHO-K1/human TPBG, replicate 1 [3]: 0.23 nM
EC50 cytotoxicity, Fab + anti-kappa-Fab-PE, CHO-K1/human TPBG, replicate 2 [3]: 0.24 nM
Kd [4]: 1.74 nM
koff [4]: 0.000205 s⁻¹
kon [4]: 118000 M⁻¹ s⁻¹
internalization after 0.5 h, MCF7 cells [5]: 16%
internalization after 1.0 h, MCF7 cells [5]: 33%
internalization after 2.0 h, MCF7 cells [5]: 42%
Fold change pH 7.2 vs pH 5.5 [6]: 0.9 fold
EC50 [7]: 1.23 µg/mL
EC50 [8]: 0.0618 µg/mL
